For assay [1], the target named is T1, human Sorcin (human, UniProt P30626 1-198).
T1 construct: Sorcin, human
T1 sequence (looked up): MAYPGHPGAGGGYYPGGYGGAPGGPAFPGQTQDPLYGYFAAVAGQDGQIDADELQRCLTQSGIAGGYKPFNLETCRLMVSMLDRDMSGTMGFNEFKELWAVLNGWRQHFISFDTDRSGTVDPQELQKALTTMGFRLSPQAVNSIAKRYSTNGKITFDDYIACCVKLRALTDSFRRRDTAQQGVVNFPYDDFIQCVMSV
Nature of the assay: SPR; FastStep (SensiQ Pioneer); human Sorcin amine-coupled to a COOH5 chip (2000 RU); peptides 1.56-100 μM; 20 mM Hepes pH 7.4, 150 mM NaCl, 0.005% P20, 100 μM CaCl2; best fits with 2 sites. (In SPR one partner is held on a chip, and binding of the other changes the refractive index at the surface.)

In assay [2] the target is T1, human Sorcin. Nature of the assay: SPR; OneStep as a6 but in buffer with 1 mM EDTA (HBS-PE). The following applies: both partners purified.
Assay [3] addresses T1, human Sorcin. The experiment in a line: SPR; OneStep (SensiQ Pioneer); GST-Sigma-1 receptor (1-138) amine-coupled to a COOH5 chip (125 RU), signal on GST (80 RU) subtracted; Sorcin up to 5 μM; 20 mM Hepes pH 7.4, 150 mM NaCl, 0.005% P20 with CaCl2 (500 μM in the results, 100 μM in the methods); fit with 1 site. The following applies: both partners purified.

Broadly, the Kd is the constant that tells how readily two partners part at equilibrium. High values mean lower affinity, low ones higher affinity.

“RyR2 peptide corresponding to calmodulin-binding site CaMBD2” showed a Kd with human Sorcin [1] of 120 nM.

B1: RyR2 peptide corresponding to calmodulin-binding site CaMBD1 (peptide)
peptide: FRYNEVMQALNMSAALTARKTREFR
notes: source: synthetic peptide (Biomatik, purity > 90%)
As for B1, in the assay with human Sorcin [1] (both partners purified), the Kd was more than 10000 nM.

B2: GST-Sigma-1 receptor (cytosolic domain, residues 1-138) (domain or fragment, UniProt Q99720 1-138, looked up)
chain: MQWAVGRRWAWAALLLAVAAVLTQVVWLWLGTQSFVFQREEIAQLARQYAGLDHELAFSRLIVELRRLHPGHVLPDEELQWVFVNAGGWMGAMCLLHASLSEYVLLFGTALGSRGHSGRYWAEISDTIISGTFHQWRE
notes: Sigma-1 receptor, 'cytosolic domain' residues 1-138, cloned in frame with GST in pGEX4T1; pGEX4T1 puts GST at the N-terminus (surmised); also called Sigma-1 receptor (1–138); source: E. coli BL21(DE3), purified (GSTrap HP)
Regarding B2, the Kd with human Sorcin [2] worked out at 12 µM; with human Sorcin [3], 720 nM.

B3: RyR2 peptide corresponding to calmodulin-binding site CaMBD3 (peptide)
peptide: ALRYNVLTLVRMLSLKSLKKQMKRMKKMTVK
notes: as for B1
B3: the Kd with human Sorcin [1] (both partners purified) came out at 480 nM.

For the origin of these results see publication PMC7566454, “Sorcin is an early marker of neurodegeneration, Ca^2+ dysregulation and endoplasmic reticulum stress associated to neurodegenerative diseases” (Cell Death & Disease, 2020).
